{"source": "paper PMC8166844", "about": "“The FlhA linker mediates flagellar protein export switching during flagellar assembly” (Communications Biology, 2021)", "binders": {"B1": {"name": "His-FlhAC (C-terminal cytoplasmic domain of FlhA, residues 328–692), wild type, P40729 328-692 (domain or fragment)", "chain": "RGREEKAPEEPQPVKMPENNSVVEATWNDVQLEDSLGMEVGYRLIPMVDFQQDGELLGRIRSIRKKFAQDMGFLPPVVHIRDNMDLQPARYRILMKGVEIGSGDAYPGRWLAINPGTAAGTLPGEKTVDPAFGLDAIWIESALKEQAQIQGFTVVEASTVVATHLNHLIGQFSAELFGRQEAQQLLDRVSQEMPKLTEDLVPGVVTLTTLHKVLQNLLAEKVPIRDMRTILETLAEHAPLQSDPHELTAVVRVALGRAITQQWFPGNEEVQVIGLDTALERLLLQALQGGGGLEPGLADRLLAQTQEALSRQEMLGAPPVLLVNHALRPLLSRFLRRSLPQLVVLSNLELSDNRHIRMTATIGGK"}, "B2": {"name": "His-FlhAC(E351A/W354A/D356A), P40729 328-692 (domain or fragment)", "chain": "B1 chain with E24A, W27A, D29A"}, "B3": {"name": "His-FlhAC(E351A/D356A), P40729 328-692 (domain or fragment)", "chain": "B1 chain with E24A, D29A"}, "B4": {"name": "GST-FlgN (natural protein)", "chain": "MTRLSEILDQMTTVLNDLKTVMDAEQQQLSVGQINGSQLQRITEEKSSLLATLDYLEQQRRLEQNAQRSANDDIAERWQAITEKTQHLRDLNQHNGWLLEGQIERNQQALEVLKPHQEPTLYGADGQTSVSHRGGKKISI", "notes": "also called pMMGN101"}, "B5": {"name": "His-FlhAC lacking FlhAL (residues 328–361), P40729 362-692 (domain or fragment)", "chain": "SLGMEVGYRLIPMVDFQQDGELLGRIRSIRKKFAQDMGFLPPVVHIRDNMDLQPARYRILMKGVEIGSGDAYPGRWLAINPGTAAGTLPGEKTVDPAFGLDAIWIESALKEQAQIQGFTVVEASTVVATHLNHLIGQFSAELFGRQEAQQLLDRVSQEMPKLTEDLVPGVVTLTTLHKVLQNLLAEKVPIRDMRTILETLAEHAPLQSDPHELTAVVRVALGRAITQQWFPGNEEVQVIGLDTALERLLLQALQGGGGLEPGLADRLLAQTQEALSRQEMLGAPPVLLVNHALRPLLSRFLRRSLPQLVVLSNLELSDNRHIRMTATIGGK"}}, "key": {"[1]": {"biological_target": "GST-FliJ (Salmonella enterica), P0A1K1", "sequence (P0A1K1 whole entry)": "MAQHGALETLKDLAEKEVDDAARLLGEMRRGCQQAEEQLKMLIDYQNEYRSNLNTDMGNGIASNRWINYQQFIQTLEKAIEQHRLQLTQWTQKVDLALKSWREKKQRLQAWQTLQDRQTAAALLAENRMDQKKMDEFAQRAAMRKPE", "assay": "BLI; GST-FliJ immobilised on an anti-GST sensor tip (BLItz), His-FlhAC or its variants in solution at various concentrations; kinetic buffer PBS pH 7.4, 0.1% BSA, 0.002% Tween-20; 25 °C; wild type fitted with a two-state reaction model, FlhAC-EWD and FlhAC-ΔL with the Hill equation; n = 3", "conditions": "remark: other sources report otherwise"}, "[2]": {"biological_target": "T1, GST-FlgN (Salmonella enterica), P0A1J7", "T1 chain": "B4 chain", "assay": "BLI; GST-FlgN immobilised on an anti-GST sensor tip (BLItz), His-FlhAC or its variants in solution at various concentrations; kinetic buffer PBS pH 7.4, 0.1% BSA, 0.002% Tween-20; 25 °C; FlhAC-ED and FlhAC-EWD fitted with a two-state reaction model, FlhAC-ΔL with a heterogeneous reaction model; n = 3", "conditions": "remark: other sources report otherwise"}, "[3]": {"biological_target": "T2, His-FlhAC (C-terminal cytoplasmic domain of FlhA, residues 328–692), wild type (Salmonella enterica, UniProt P40729 328-692)", "T2 construct": "also called wild-type FlhAC; WT", "T2 sequence": "B1 chain", "assay": "BLI; GST-FlgN immobilised on an anti-GST sensor tip (BLItz), His-FlhAC or its variants in solution at various concentrations; kinetic buffer PBS pH 7.4, 0.1% BSA, 0.002% Tween-20; 25 °C; FlhAC-ED and FlhAC-EWD fitted with a two-state reaction model, FlhAC-ΔL with a heterogeneous reaction model; n = 3", "conditions": "both partners purified"}, "[4]": {"biological_target": "T3, His-FlhAC(E351A/W354A/D356A) (Salmonella enterica, UniProt P40729 328-692, E351A | W354A | D356A)", "T3 construct": "also called FlhAC-EWD; His-FlhAC-EWD", "T3 sequence": "B1 chain with E24A, W27A, D29A", "assay": "BLI; GST-FlgN immobilised on an anti-GST sensor tip (BLItz), His-FlhAC or its variants in solution at various concentrations; kinetic buffer PBS pH 7.4, 0.1% BSA, 0.002% Tween-20; 25 °C; FlhAC-ED and FlhAC-EWD fitted with a two-state reaction model, FlhAC-ΔL with a heterogeneous reaction model; n = 3", "conditions": "both partners purified"}, "[5]": {"biological_target": "T4, His-FlhAC lacking FlhAL (residues 328–361) (Salmonella enterica, UniProt P40729 362-692)", "T4 construct": "also called FlhAC-ΔL; His-FlhAC-ΔL", "T4 sequence": "B5 chain", "assay": "BLI; GST-FlgN immobilised on an anti-GST sensor tip (BLItz), His-FlhAC or its variants in solution at various concentrations; kinetic buffer PBS pH 7.4, 0.1% BSA, 0.002% Tween-20; 25 °C; FlhAC-ED and FlhAC-EWD fitted with a two-state reaction model, FlhAC-ΔL with a heterogeneous reaction model; n = 3", "conditions": "both partners purified"}}, "note": "Residue numbers refer to the chain shown, from its start. Names may count otherwise."}
{"binder": "B1", "values": [{"measurement": "Kd", "setting": "[1]", "result": 1.36, "unit": "µM"}]}
{"binder": "B2", "values": [{"measurement": "Kd", "setting": "[1]", "result": 60.7, "unit": "µM"}]}
{"binder": "B3", "values": [{"measurement": "Kd", "setting": "[2]", "result": 37.8, "unit": "µM"}]}
{"binder": "B4", "values": [{"measurement": "Kd", "setting": "[3]", "result": 0.095, "unit": "µM"}, {"measurement": "koff", "setting": "[3]", "result": "~0.000781", "unit": "s⁻¹"}, {"measurement": "kon", "setting": "[3]", "result": "~8230", "unit": "M⁻¹ s⁻¹"}, {"measurement": "Kd", "setting": "[4]", "result": 31.2, "unit": "µM"}, {"measurement": "Kd", "setting": "[5]", "result": 3.1, "unit": "µM"}]}
{"binder": "B5", "values": [{"measurement": "Kd", "setting": "[1]", "result": 49, "unit": "µM"}]}
